Assay results: article doi:10.1101/2023.06.23.546240

Legend:
Experiment in all cases: SPR
Details in all cases: not given in the material (no Methods text)
HILI (PIWIL2) (human) = HILI (PIWIL2) (human) (UniProt Q8TC59)
MILI (PIWIL2) (mouse) = MILI (PIWIL2) (mouse) (UniProt Q8CDG1)
[1] = molecular target: T1, EfPiwi (Ephydatia fluviatilis) (UniProt D5MRY8)
T1 sequence: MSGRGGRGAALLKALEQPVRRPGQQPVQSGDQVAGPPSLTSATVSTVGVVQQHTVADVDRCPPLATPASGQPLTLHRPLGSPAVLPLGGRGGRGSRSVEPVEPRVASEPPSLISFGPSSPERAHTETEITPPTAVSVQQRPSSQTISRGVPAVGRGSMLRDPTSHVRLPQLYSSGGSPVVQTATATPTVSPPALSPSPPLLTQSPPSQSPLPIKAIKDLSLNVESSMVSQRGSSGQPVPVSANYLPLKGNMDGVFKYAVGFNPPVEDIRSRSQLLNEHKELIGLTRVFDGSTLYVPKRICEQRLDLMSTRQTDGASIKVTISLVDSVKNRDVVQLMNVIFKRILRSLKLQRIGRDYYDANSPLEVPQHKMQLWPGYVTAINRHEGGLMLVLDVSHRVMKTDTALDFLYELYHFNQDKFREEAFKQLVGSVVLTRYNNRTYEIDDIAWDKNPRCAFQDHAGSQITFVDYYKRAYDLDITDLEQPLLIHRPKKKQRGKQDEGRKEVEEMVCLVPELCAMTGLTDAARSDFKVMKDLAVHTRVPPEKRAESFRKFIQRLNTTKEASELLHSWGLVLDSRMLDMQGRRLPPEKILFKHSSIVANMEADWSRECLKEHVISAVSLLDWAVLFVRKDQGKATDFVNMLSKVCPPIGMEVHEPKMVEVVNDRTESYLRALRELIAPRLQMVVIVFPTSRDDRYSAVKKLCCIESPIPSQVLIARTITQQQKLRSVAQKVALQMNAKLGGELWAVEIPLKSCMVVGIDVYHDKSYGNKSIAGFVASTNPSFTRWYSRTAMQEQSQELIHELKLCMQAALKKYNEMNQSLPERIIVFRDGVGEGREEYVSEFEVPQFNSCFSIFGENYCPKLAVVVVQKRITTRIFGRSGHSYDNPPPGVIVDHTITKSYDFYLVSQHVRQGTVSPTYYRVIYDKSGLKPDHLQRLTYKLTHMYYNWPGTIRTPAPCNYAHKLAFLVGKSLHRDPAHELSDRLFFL

Chain of HILI (PIWIL2) (human) (Q8TC59 whole entry): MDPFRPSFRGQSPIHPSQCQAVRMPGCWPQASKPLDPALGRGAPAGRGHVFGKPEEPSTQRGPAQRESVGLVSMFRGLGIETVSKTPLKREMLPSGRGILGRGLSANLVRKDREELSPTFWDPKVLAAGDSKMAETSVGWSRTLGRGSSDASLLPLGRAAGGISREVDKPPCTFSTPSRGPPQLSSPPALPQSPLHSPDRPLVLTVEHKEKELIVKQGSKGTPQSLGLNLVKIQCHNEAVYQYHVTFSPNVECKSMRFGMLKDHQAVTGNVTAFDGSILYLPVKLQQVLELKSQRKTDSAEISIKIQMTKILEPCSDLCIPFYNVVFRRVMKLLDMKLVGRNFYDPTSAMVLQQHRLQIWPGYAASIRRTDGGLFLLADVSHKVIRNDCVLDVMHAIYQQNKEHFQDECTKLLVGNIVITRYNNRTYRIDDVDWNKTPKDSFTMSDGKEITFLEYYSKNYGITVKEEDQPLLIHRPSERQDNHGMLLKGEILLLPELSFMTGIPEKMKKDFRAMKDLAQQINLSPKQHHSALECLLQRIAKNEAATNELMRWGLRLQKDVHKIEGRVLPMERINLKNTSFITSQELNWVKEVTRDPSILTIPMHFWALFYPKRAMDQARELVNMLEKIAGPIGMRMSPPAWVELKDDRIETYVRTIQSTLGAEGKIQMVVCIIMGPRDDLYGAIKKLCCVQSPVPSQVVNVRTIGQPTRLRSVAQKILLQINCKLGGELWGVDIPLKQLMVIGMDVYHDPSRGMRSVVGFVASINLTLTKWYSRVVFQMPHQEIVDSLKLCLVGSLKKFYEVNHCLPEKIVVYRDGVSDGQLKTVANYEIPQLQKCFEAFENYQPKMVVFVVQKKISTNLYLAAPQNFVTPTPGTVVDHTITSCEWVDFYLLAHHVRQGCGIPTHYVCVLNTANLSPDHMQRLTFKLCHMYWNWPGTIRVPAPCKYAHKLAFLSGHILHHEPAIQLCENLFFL
Chain of MILI (PIWIL2) (mouse) (Q8CDG1 whole entry): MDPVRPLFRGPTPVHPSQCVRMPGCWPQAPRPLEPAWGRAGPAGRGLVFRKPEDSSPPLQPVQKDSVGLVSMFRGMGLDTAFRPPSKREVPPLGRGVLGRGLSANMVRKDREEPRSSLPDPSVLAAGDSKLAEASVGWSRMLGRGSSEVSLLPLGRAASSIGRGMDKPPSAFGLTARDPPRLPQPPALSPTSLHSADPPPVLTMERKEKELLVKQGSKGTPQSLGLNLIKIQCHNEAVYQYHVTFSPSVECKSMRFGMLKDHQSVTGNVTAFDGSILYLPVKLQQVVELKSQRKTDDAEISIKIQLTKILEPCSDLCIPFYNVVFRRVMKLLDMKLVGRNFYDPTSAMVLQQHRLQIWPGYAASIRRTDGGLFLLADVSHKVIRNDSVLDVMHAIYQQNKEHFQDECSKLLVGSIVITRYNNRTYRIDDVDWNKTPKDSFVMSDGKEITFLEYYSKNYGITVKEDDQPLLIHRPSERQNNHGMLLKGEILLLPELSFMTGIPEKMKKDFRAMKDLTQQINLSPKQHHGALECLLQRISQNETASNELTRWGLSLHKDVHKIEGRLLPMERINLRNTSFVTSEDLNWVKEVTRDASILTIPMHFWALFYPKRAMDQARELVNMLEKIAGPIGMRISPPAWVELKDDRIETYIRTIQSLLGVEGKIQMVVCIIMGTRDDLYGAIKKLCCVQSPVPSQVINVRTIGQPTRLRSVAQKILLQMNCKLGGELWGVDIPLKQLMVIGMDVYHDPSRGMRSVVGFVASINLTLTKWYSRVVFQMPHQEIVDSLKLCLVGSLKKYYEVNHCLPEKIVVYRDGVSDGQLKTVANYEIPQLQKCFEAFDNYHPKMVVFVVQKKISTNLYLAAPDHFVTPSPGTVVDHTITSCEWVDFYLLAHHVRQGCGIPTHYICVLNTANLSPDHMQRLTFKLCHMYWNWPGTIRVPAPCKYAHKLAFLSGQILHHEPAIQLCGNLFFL

Substance | binding signal (fold higher affinity than EfPiwi) (HILI (PIWIL2) (human)) | binding signal (fold higher affinity than EfPiwi) (MILI (PIWIL2) (mouse)) | binding signal (fold higher KD than MILI or HILI) [1]
piRNA guide + seed-complementary (g2-g8) target | 6 | 6 | –
piRNA guide + target with g3-g4 dinucleotide mismatch | – | – | 20
